Columns and labels:
[1] = target: three human E2 enzymes UbCH2, UbCH3 and UbCH5a (at least one of these three enzymes)
[2] = target: T1, UbCH2, P62256
T1 chain: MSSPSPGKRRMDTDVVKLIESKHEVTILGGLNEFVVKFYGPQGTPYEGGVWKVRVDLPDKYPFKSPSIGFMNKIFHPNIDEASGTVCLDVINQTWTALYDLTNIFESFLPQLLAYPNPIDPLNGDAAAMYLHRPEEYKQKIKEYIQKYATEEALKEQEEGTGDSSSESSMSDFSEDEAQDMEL

[3] = target: T2, GST-MmUbc6
T2 sequence (Q9JJZ4 whole entry, looked up): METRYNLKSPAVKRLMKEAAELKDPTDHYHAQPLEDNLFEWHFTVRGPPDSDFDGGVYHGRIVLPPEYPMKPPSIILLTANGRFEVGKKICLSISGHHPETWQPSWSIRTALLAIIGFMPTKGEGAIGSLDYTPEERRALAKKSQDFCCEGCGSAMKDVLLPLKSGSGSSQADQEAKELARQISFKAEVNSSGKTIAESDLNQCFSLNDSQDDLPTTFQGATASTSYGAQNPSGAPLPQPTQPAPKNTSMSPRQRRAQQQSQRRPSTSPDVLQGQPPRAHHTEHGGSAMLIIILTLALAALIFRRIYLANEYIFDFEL

[4] = target: GST-UbCH5a, P51668
[5] = target: E2 enzymes tested
[6] = target: T3, GST-MmUbc7, P60605
T3 chain: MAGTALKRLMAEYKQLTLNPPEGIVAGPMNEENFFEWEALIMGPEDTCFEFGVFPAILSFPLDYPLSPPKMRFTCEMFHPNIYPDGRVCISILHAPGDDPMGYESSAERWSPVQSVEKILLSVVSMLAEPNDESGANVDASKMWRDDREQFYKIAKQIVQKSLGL

GST-UbCH5a, P51668, sequence (P51668 whole entry): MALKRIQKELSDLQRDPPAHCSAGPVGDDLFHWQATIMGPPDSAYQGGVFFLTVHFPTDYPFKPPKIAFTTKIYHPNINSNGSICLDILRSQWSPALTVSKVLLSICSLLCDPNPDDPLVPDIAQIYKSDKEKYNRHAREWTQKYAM

B1: GST fusion of the MARCH-IV RING-CH domain (protein)
chain: WYCYGLCAPAPQMLRHQGLLKCRCRMLFNDLKVFLLRRPPQAPLPMHGDPQPPGLAANNTLPALGAGGWAGWRGPREVVGREPPPVPPPPPLPPSSVEDDWGGPATEPPASLLSSASSDDFCKEKTEDRYSLGSSLDSGMRTPLCRICFQGPEQGELLSPCRCDGSVKCTHQPCLIKWISERGCWSCELCYYKYHVIAISTKNPLQWQAISLTVIEKVQ
- formation of high-molecular weight ubiquitin complexes in vitro (anti-ubiquitin blot) [1]: The RiNG-CH-GST fusion proteins of all four MARCH-proteins tested were able to catalyze the formation of high-molecular weight molecular ubiquitin complexes in the presence of at least one of these three enzymes
- formation of high-molecular weight ubiquitin complexes in vitro (anti-ubiquitin blot) [2]: MARCH-IV was mostly active with UbCH2

B2: GST-ICP0-RING (amino acids 1-241 of ICP0) (protein)
chain: MEPRPGASTRRPEGRPQREPAPDVWVFPCDRDLPDSSDSEAETEVGGRGDADHHDDDSASEADSTDTELFETGLLGPQGVDGGAVSGGSPPREEDPGSCGGAPPREDGGSDEGDVCAVCTDEIAPHLRCDTFPCMHRFCIPCMKTWMQLRNTCPLCNAKLVYLIVGVTPSGSFSTIPIVNDPQTRMEAEEAVRAGTAVDFIWTGNQRFAPRYLTLGGHTVRALSPTHPEPTTDEDDDDLDD
- formation of high-molecular weight ubiquitin complexes in vitro (anti-ubiquitin blot) [3]: The ICP0-RING domain also showed some activity with the murine ER-bound E2 enzyme MmUbc6
- formation of high-molecular weight ubiquitin complexes in vitro (anti-ubiquitin blot) [4]: ICPO promoted the formation of high-molecular weight complexes in the presence of the E2 enzyme ubCH5a

B3: GST fusion of the MARCH-I RING-CH domain (protein)
chain: MTSSHVCCNFLNMWKKSKISTMYYLNQDAKLSNLFLQASSPTTGTAPRSQSRLSVCPSTQDICRICHCEGDEESPLITPCRCTGTLRFVHQSCLHQWIKSSDTRCCELCKYDFIMETKLKPLRKWEKLQMTTSERRK
- promotion of ubiquitination in vitro [3]: MARCH-I was only active with MmUbc6
- formation of high-molecular weight ubiquitin complexes in vitro (anti-ubiquitin blot) [5]: MARCH-I was less active with most E2 enzymes tested with the notable exception of UbCH5a
- promotion of ubiquitination in vitro [6]: Whereas MARCH-II was able to function with both proteins, MARCH-I was only active with MmUbc6
- formation of high-molecular weight ubiquitin complexes in vitro (anti-ubiquitin blot) [4]: MARCH-I was less active with most E2 enzymes tested with the notable exception of UbCH5a
- formation of high-molecular weight ubiquitin complexes in vitro (anti-ubiquitin blot) [1]: The RiNG-CH-GST fusion proteins of all four MARCH-proteins tested were able to catalyze the formation of high-molecular weight molecular ubiquitin complexes in the presence of at least one of these three enzymes
